Patent publication US20080234198A1 (Eli Lilly, published 2008)
*1 amine or outer side, *2 acyl side, *3 side chain or, on linkers, in order; H or OH if unused. [ ]: non-standard residue; d: D form. The star is where a group is joined. Tyr(OMe) = methoxy tyrosine, COc1ccc(C[C@H](N[*:1])C(=O)[*:2])cc1; WPEG40K = not defined here; Orn = NCCC[C@H](N)C(=O)O; Abu = CC[C@H](N)C(=O)O; Hexanoyl = CCCCCC(=O)*; Aib = CC(C)(N)C(=O)O

T1: human VPAC2 receptor (human, UniProt P41587 24-438)
T1 construct: whole, on cells; CHO-S cell line stably expressing human VPAC2 (cAMP assays)
T1 sequence (looked up): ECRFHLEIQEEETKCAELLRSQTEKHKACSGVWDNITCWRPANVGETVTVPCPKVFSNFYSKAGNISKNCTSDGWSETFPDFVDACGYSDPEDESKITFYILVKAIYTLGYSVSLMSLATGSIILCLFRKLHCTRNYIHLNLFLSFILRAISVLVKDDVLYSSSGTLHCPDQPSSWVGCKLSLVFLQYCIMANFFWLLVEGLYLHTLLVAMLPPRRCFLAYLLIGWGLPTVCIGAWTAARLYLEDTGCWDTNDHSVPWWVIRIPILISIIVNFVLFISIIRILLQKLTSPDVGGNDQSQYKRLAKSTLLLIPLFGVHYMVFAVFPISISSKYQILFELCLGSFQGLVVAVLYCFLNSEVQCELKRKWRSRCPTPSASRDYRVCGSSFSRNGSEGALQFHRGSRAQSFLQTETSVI

T2: rat VPAC2 receptor (rat, UniProt P35000 23-437)
T2 sequence (looked up): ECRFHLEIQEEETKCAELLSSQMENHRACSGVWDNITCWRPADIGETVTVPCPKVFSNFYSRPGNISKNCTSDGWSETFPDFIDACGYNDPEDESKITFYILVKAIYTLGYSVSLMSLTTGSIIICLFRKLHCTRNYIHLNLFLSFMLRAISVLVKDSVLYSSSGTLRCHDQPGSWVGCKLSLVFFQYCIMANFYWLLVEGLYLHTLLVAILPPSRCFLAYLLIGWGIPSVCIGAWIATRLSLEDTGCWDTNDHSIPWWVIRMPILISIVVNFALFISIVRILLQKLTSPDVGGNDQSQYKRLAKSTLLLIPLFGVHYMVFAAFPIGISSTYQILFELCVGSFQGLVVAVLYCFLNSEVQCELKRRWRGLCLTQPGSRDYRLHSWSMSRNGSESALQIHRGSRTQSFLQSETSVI

T3: rat VPAC1 receptor (rat, UniProt P30083 31-459)
T3 sequence (looked up): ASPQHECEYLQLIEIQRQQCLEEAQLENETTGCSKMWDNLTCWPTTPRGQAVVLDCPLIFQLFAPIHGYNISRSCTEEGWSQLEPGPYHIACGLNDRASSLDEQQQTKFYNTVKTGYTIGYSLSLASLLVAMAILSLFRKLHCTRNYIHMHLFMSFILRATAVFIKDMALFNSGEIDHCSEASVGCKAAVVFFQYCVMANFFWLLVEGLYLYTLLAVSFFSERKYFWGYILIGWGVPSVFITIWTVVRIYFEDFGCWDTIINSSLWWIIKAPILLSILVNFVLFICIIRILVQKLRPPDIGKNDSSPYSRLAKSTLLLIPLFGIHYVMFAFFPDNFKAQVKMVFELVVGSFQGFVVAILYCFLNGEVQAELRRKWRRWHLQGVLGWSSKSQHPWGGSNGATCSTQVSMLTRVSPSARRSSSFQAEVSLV

B1: P490 (peptide)
peptide: HSDAVFTEQYTXLRXQVAAXXYLXSIXXGGPSSGAPPPC
modifications: C6-HSDAVFTEQY(OMe)TOrnLRAibQVAAAibOrnYLK(CO(CH2)2SPEG20K)SIOrnOrnGGPSSGAPPPC(PEG20K)-NH2
B2: P570 (peptide)
peptide: HSDAVFTEQYTXLRXQLAXXXYLQXIXXGGPSSGAPPPCC
modifications: C6-HSDAVFTEQY(OMe)TOrnLRAibQLAAbuAibOrnYLQAibIOrnOrnGGPSSGAPPPC(PEG30K)C(PEG30K)-NH2
B3: P590 (peptide)
peptide: HSDAVFTEQYTXLRXQLXAXXYLQSIXXGGPSSGAPPPCC
modifications: C6-HSDAVFTEQY(OMe)TOrnLRAibQLAbuAAibOrnYLQSIOrnOrnGGPSSGAPPPC(PEG20K)C(PEG20K)-NH2
B4: P574 (peptide)
peptide: HSDAVFTEQYTXLRXQLAXXXYLQXIXXGGPSSGAPPPCC
modifications: C6-HSDAVFTEQY(OMe)TOrnLRAibQLAAbuAibOrnY(OMe)LQAibIOrnOrnGGPSSGAPPPC(PEG20K)C(PEG20K)-NH2
B5: P602 (peptide)
peptide: HSDAVFTEQYTXLRXQLAXXXYXQSIXXGGPSSGAPPPCC
modifications: C6-HSDAVFTEQY(OMe)TOrnLRAibQLAAbuAibOrnYAibQSIOrnOrnGGPSSGAPPPC(PEG30K)C(PEG30K)-NH2
B6: P582 (peptide)
peptide: HSDAVFTEQYTXLRXQLAXXXYLQSIXXGGPSSGAPPPCC
modifications: C6-HSDAVFTEQY(OMe)TOrnLRAibQLAAbuAibOrnY(OMe)LQSIOrnOrnGGPSSGAPPPC(PEG20K)C(PEG20K)-NH2
B7: P551 (peptide)
peptide: HSDAVFTEQYTXLRXQLAXXXYLQSIXXXGGPSSGAPPPC
modifications: C6-HSDAVFTEQY(OMe)TOrnLRAibQLAAbuAibOrnYLQSIOrnK(CO(CH2)2SPEG20K)OrnGGPSSGAPPPC(PEG20K)-NH2
B8: P580 (peptide)
peptide: HSDAVFTEQYTXLRXQLAXXXYLQXIXXCGGPSSGAPPPC
modifications: C6-HSDAVFTEQY(OMe)TOrnLRAibQLAAbuAibOrnYLQAibIOrnOrnC(PEG20K)GGPSSGAPPPC(PEG20K)-NH2
B9: P553 (peptide)
peptide: HSDAVFTEQYTXLRXQLAXXXYLQXIXCXGGPSSGAPPPC
modifications: C6-HSDAVFTEQY(OMe)TOrnLRAibQLAAbuAibOrnYLQAibIOrnC(PEG20K)OrnGGPSSGAPPPC(PEG20K)-NH2
B10: P555 (peptide)
peptide: HSDAVFTEQYTXLRXQLAXXXYLQSIXCXGGPSSGAPPPC
modifications: C6-HSDAVFTEQY(OMe)TOrnLRAibQLAAbuAibOrnYLQSIOrnC(PEG20K)OrnGGPSSGAPPPC(PEG20K)-NH2
B11: P562 (peptide)
peptide: HSDAVFTEQYTXLRXQVAAXXYLQSIXXCGGPSSGAPPPC
modifications: C6-HSDAVFTEQY(OMe)TOrnLRAibQVAAAibOrnYLQSIOrnOrnC(PEG20K)GGPSSGAPPPC(PEG20K)-NH2
B12: P572 (peptide)
peptide: HSDAVFTEQYTXLRXQLAXXXYLQSIXXCGGPSSGAPPPC
modifications: C6-HSDAVFTEQY(OMe)TOrnLRAibQLAAbuAibOrnYLQSIOrnOrnC(PEG20K)GGPSSGAPPPC(PEG20K)-NH2

How the values were obtained:
human VPAC2 receptor [1] = biological target: T1, human VPAC2 receptor; test: filter binding, VPAC2 cell membranes, displacement of 125I-VIP
Procedure: Binding assays: Membrane prepared from a stable VPAC2 cell line (see Example 3) or from cells transiently transfected with human VPAC1 or PAC1 are used.
The assay plate is filled with 25 μL assay buffer, 25 μL membranes (2.5 μg) suspended in assay buffer, 25 μL agonist in assay buffer, and 25 μL tracer (about 40000 cpm) in assay buffer. The filled plate is incubated for 1 hour with shaking.
The transfer from assay plate to filter plate is conducted. The blocking buffer is aspirated by vacuum filtration and washed two times with flush buffer. 90 μL is transferred from the assay plate to the filter plate. The 90 μL transferred from assay plate is aspirated and washed three times with 200 μL flush buffer. The plastic support is removed. It is dried for 1 hour at 60° C. 30 μL Microscint is added. The count is performed.

human VPAC2 receptor [2] = biological target: T1, human VPAC2 receptor; test: cell-based or functional assay
rat VPAC2 receptor = biological target: T2, rat VPAC2 receptor; test: cell-based or functional assay
rat VPAC1 receptor = biological target: T3, rat VPAC1 receptor; test: cell-based or functional assay

Binder | IC50 (human VPAC2 receptor [1]) [nM] | Human VPAC2 Receptor: Alphascreen (EC50; nM) (human VPAC2 receptor [2]) [nM] | Rat VPAC2 Receptor: DiscoveRx: (EC50; nM) (rat VPAC2 receptor) [nM] | Rat VPAC1 Receptor: DiscoveRx: (EC50; nM) (rat VPAC1 receptor) [nM] | Human VPAC2 Receptor: DiscoveRx (EC50; nM) (human VPAC2 receptor [2]) [nM]
C6-HSDAVFTEQ[Tyr(OMe)]T[Orn]LRC(PEG 40 kDa)QLA[Abu][Aib][Orn]YLQ[Aib]I[Orn][Orn]GGPSSGAPPPS-NH2 [P547] | 5.6 | 62 | 150 | 76.2 | 
Hexanoyl-HSDAVFTEQ[Tyr(OMe)]T[Orn]LRK(WPEG40K)QLA[Abu][Aib][Orn]YLQ[Aib]I[Orn][Orn]GGPSSGAPPPS-NH2 (reading uncertain) [P557] | 380 |  | 397 | 581 | 108
B1 | 13.2 | 116 | 192 | > 1000 | 
HSDAVFTEQYTXLRCQVAAXXYLQSIXXGGPSSGAPPPS (C6-HSDAVFTEQY(OMe)TOrnLRC(PEG40K)QVAAAibOrnYLQSIOrnOrnGGPSSGAPPPS-NH2) [P483] | 37.3 | 33.5 | 128 | 224 | 
HSDAVFTEQYTXLRXQVAAXXYLQSIXXGGPSSGAPPPS (C6-HSDAVFTEQY(OMe)TOrnLRAibQVAAK(CO(CH2)2SPEG40K)OrnYLQSIOrnOrnGGPSSGAPPPS-NH2) [P475] | 436 | 109 | 220 | > 1000 | 
HSDAVFTEQYTXLRXQVAAXXYLQSIXXGGPSSGAPPPS (C6-HSDAVFTEQY(OMe)TOrnLRK(CO(CH2)2SPEG40K)QVAAAibOrnYLQSIOrnOrnGGPSSGAPPPS-NH2) [P485] | 17.3 | 44.5 | 42.5 | 735 | 
HSDAVFTEQYTXLRXQVAAXXYLXSIXXGGPSSGAPPPS (C6-HSDAVFTEQY(OMe)TOrnLRAibQVAAAibOrnYLK(WPEG40K)SIOrnOrnGGPSSGAPPPS-NH2) [P531] | 69.7 | 94.6 | 69.9 | 301 | 
HSDAVFTEQYTRXRXQLAAXXYLQSIKXXGGPSSGAPPPC (C6-HSDAVFTEQY(OMe)TRAibRAibQLAAAibOrnY(OMe)LQSIKAibOrnGGPSSGAPPPC(PEG40K)-NH2) [P417] | 24.1 | 14.7 | 8.7 | 232 | 
B2 | 4.1 | 13.4 | 21.3 | 86.7 | 4.5
B3 | 7.4 | 4.1 | 6.9 | 245 | 
B4 | 32.3 | 21.2 | 33.8 | 163 | 36.1
B5 | 28 | 42.1 | 36.9 | 209 | 7.2
B6 | 48.3 | 20.3 | 31 | 137 | 
HSDAVFTEQYTXLRXQLAXXXYLQXIXCXGGPSSGAPPPS (C6-HSDAVFTEQY(OMe)TOrnLRAibQLAAbuAibOrnYLQAibIOrnC(PEG40K)OrnGGPSSGAPPPS-NH2) [P537] | 17.2 | 32 | 38.8 | 206 | 
HSDAVFTEQYTXLRXQLAAXXYLQSIXXCGGPSSGAPPPS (C6-HSDAVFTEQY(OMe)TOrnLRAibQLAAAibOrnYLQSIOrnOrnC(PEG40K)GGPSSGAPPPS-NH2) [P560] | 11.6 | 13.8 | 20.4 | 156 | 11.3
B7 | 16.6 | 15.6 | 13.2 | 172 | 
HSDAVFTEQYTXLRXQLAXXXYLQSIXXCGGPSSGAPPPS (C6-HSDAVFTEQY(OMe)TOrnLRAibQLAAbuAibOrnYLQSIOrnOrnC(PEG40K)GGPSSGAPPPS-NH2) [P566] | 8.2 | 11.8 | 13.1 | 52.7 | 7.8
HSDAVFTEQYTXLRXQLAXXXYLQSIXCXGGPSSGAPPPS (C6-HSDAVFTEQY(OMe)TOrnLRAibQLAAbuAibOrnYLQSIOrnC(PEG40K)OrnGGPSSGAPPPS-NH2) [P539] | 13.5 | 10.7 | 21 | 32.6 | 47.3
B8 | 20.7 | 10.9 | 11.9 | 1.1 | 
B9 | 21.7 | 15 | 22 | 262 | 
B10 | 15.4 | 22.5 | 32.5 | 68.9 | 8.1
B11 | 42.8 | 30.2 | 52.5 | 393 | 24.2
B12 | 14.9 | 11.2 | 10.8 | 94.5 | 
